According to US20080226682A1, “Immunoactive Compositions for Improved Oral Delivery of Vaccines and Therapeutic Agents” (PerOs Systems Technologies, Inc., priority 2007, published 2008):
“Also recorded” adds a separate entry of the source.

B1: PNA: peanut (Arachis hypogaea) lectin (protein, UniProt P02872 24-273, looked up)
Galactose-binding lectin: AETVSFNFNSFSEGNPAINFQGDVTVLSNGNIQLTNLNKVNSVGRVLYAMPVRIWSSATGNVASFLTSFSFEMKDIKDYDPADGIIFFIAPEDTQIPAGSIGGGTLGVSDTKGAGHFVGVEFDTYSNSEYNDPPTDHVGIDVNSVDSVKTVPWNSVSGAVVKVTVIYDSSTKTLSVAVTNDNGDITTIAQVVDLKAKLPERVKFGFSASGSLGGRQIHLIRSWSFTSTLITTTRRSIDNNEKKIMNMASA
B2: PSA: small pea (Pisum sativum) lectin (protein, UniProt P02867 31-217; P02867 218-275, looked up)
Lectin beta chain: TETTSFLITKFSPDQQNLIFQGDGYTTKEKLTLTKAVKNTVGRALYSSPIHIWDRETGNVANFVTSFTFVINAPNSYNVADGFTFFIAPVDTKPQTGGGYLGVFNSAEYDKTTQTVAVEFDTFYNAAWDPSNRDRHIGIDVNSIKSVNTKSWKLQNGEEANVVIAFNAATNVLTVSLTYPNSLEEEN
Lectin alpha chain: VTSYTLSDVVSLKDVVPEWVRIGFSATTGAEYAAHEVLSWSFHSELSGTSSSKQAADA

What was measured:
Sheep PBMC = assay: Immune cell proliferation, tetrazolium colorimetric reading (Stimulation Index)
Mouse Splenocytes = assay: as above; assay type: cell-based, BALB/c mice
Trout HK Cells = assay: as above; assay type: cell-based
human immune cells = assay: Leukocyte mitogenic response (BrdU-based ELISA, stimulation index); assay type: cell-based; conditions: purified lectin at mitogen concentration (5-40 μg/mL), day 4
feline immune cells = assay: as above; assay type: cell-based; conditions: purified lectin at mitogen concentration (5-40 μg/mL), day 4
bovine immune cells = assay: as above; assay type: cell-based; conditions: purified lectin at mitogen concentration (5-40 μg/mL), day 4
Calf PBMC = assay: Immune cell proliferation, tetrazolium colorimetric reading (Stimulation Index)
Chicken PBMC = assay: as above
swine immune cells = assay: Leukocyte mitogenic response (BrdU-based ELISA, stimulation index); assay type: cell-based; conditions: purified lectin at mitogen concentration (5-40 μg/mL), day 4
Excerpt: (§1) Lymphocytes are a representative immune system prototypic cell that may be used in in vitro assays for immunological effects of lectins, saponins and other components of natural plant or animal products. Exemplary lymphocytes for representative target species may be obtained and used in the Examples disclosed herein. The effects of various compositions on lymphocyte proliferation is examined using a standard tetrazolium based colorimetric assay (MTT). An Alamar blue-based colorimetric assay gave equivalent results to [^3H]-thymidine incorporation assay. The MTT colorimetric assay has also been used in lymphocyte proliferation assays using chicken splenocytes. These and other known assays may be utilized in the methods disclosed herein.
(§2) In one non-limiting example, cells from anterior fish kidney are obtained by forcing the aseptically removed tissue through a 100 μm cell strainer into L-15 medium supplemented with 2% fetal bovine serum (FBS), 100 U mL^−1 penicillin, 100 μg mL^−1 streptomycin, and 10 U mL^−1 sodium heparin (Processing medium, PM). The single-cell suspension is removed from the settled tissue fragments and cells are pelleted by centrifugation at 500×g for 10 min at 4° C. […]
(§3) The number of viable kidney or blood leukocytes isolated from each fish is determined by trypan blue exclusion (0.1% trypan blue in PM), and the cells are pelleted as described above.
(§4) Mitogen concentrations used to stimulate the isolated leukocytes are as follows: 10 μg mL^−1 SBA, 10 μg mL^−1 PHA-E or PHA-L, 5 μg mL^−1 LBL, 20 μg mL^−1 LCA or LOA, 10 μg mL^−1 ConA, 40 ug mL^−1 PSA and 5 μg mL^−1 PNA. […] The mitogenic response is measured on the fourth day of incubation post-mitogen stimulation using a BrdU-based ELISA at room temperature as described (Gauthier, D. T. 2003). Stimulation index (SI) values are calculated as the replicate mean optical density for a given set of mitogen-treated leukocytes divided by the replicate mean optical density of the associated mitogen free (control) leukocytes. […]

Feline PBMC = assay: Immune cell proliferation, tetrazolium colorimetric reading (Stimulation Index)
salmon immune cells = assay: Leukocyte mitogenic response (BrdU-based ELISA, stimulation index); assay type: cell-based; conditions: purified lectin at mitogen concentration (5-40 μg/mL), day 4
equine immune cells = assay: as above; assay type: cell-based; conditions: purified lectin at mitogen concentration (5-40 μg/mL), day 4
Swine PBMC = assay: Immune cell proliferation, tetrazolium colorimetric reading (Stimulation Index)
trout immune cells = assay: Leukocyte mitogenic response (BrdU-based ELISA, stimulation index); assay type: cell-based; conditions: purified lectin at mitogen concentration (5-40 μg/mL), day 4
Excerpt: as §1, §2, §3, §4

canine immune cells = assay: as above; assay type: cell-based; conditions: purified lectin at mitogen concentration (5-40 μg/mL), day 4
shrimp immune cells = assay: as above; assay type: cell-based; conditions: purified lectin at mitogen concentration (5-40 μg/mL), day 4

| Molecule | lowest concentration of lectins required for stimulation response above background (Sheep PBMC) | lowest concentration of lectins required for stimulation response above background (Mouse Splenocytes) | lowest concentration of lectins required for stimulation response above background (Trout HK Cells) | Immunomodulatory effect (stimulation index class) (human immune cells) | Immunomodulatory effect (stimulation index class) (feline immune cells) | Immunomodulatory effect (stimulation index class) (bovine immune cells) | lowest concentration of lectins required for stimulation response above background (Calf PBMC) | lowest concentration of lectins required for stimulation response above background (Chicken PBMC) | Immunomodulatory effect (stimulation index class) (swine immune cells) | lowest concentration of lectins required for stimulation response above background (Feline PBMC) | Immunomodulatory effect (stimulation index class) (salmon immune cells) | Immunomodulatory effect (stimulation index class) (equine immune cells) | lowest concentration of lectins required for stimulation response above background (Swine PBMC) | Immunomodulatory effect (stimulation index class) (trout immune cells) | Immunomodulatory effect (stimulation index class) (canine immune cells) | Immunomodulatory effect (stimulation index class) (shrimp immune cells) |
| --- | --- | --- | --- | --- | --- | --- | --- | --- | --- | --- | --- | --- | --- | --- | --- | --- |
| SBA: Soybean (Glycine max) Lectin | 50 µg/mL | Negative | refractory; also recorded: Negative | ++ (between 5 and 9.9 is assigned a value of ++ (moderate mitogen)) | + (between 1 and 4.9 is assigned a value of + (weak mitogen)) | + (between 1 and 4.9 is assigned a value of + (weak mitogen)) | 50 µg/mL | Negative | −− (<1 is assigned a value of −− (anti-mitogenic)) | 1 μg/ml ug/ml | +++ (≧10 is assigned a value of +++ (strong mitogen)) | −− (<1 is assigned a value of −− (anti-mitogenic)) | 50 µg/mL | – | – | – |
| B1 | – | – | – | + (between 1 and 4.9 is assigned a value of + (weak mitogen)) | +++ (≧10 is assigned a value of +++ (strong mitogen)) | + (between 1 and 4.9 is assigned a value of + (weak mitogen)) | – | – | – | – | +++ (≧10 is assigned a value of +++ (strong mitogen)) | ++ (between 5 and 9.9 is assigned a value of ++ (moderate mitogen)) | – | −− (<1 is assigned a value of −− (anti-mitogenic)) | ++ (between 5 and 9.9 is assigned a value of ++ (moderate mitogen)) | −− (<1 is assigned a value of −− (anti-mitogenic)) |
| B2 | – | – | – | ++ (between 5 and 9.9 is assigned a value of ++ (moderate mitogen)) | −− (<1 is assigned a value of −− (anti-mitogenic)) | +++ (≧10 is assigned a value of +++ (strong mitogen)) | – | – | – | – | −− (<1 is assigned a value of −− (anti-mitogenic)) | + (between 1 and 4.9 is assigned a value of + (weak mitogen)) | – | +++ (≧10 is assigned a value of +++ (strong mitogen)) | + (between 1 and 4.9 is assigned a value of + (weak mitogen)) | +++ (≧10 is assigned a value of +++ (strong mitogen)) |
